Measurements from patent US20140274782A1, “AFFINITY REAGENTS AND METHODS FOR DETECTION, PURIFICATION, AND PROTEOMIC ANALYSIS OF METHYLATED PROTEINS” (The Board of Trustees of the Leland Stanford Junior …, priority 2013, published 2014).

T1: G9a and GLP (Homo sapiens, UniProt Q96KQ7+Q9H9B1)
T1 sequence (Q96KQ7 2-1210 limits assumed): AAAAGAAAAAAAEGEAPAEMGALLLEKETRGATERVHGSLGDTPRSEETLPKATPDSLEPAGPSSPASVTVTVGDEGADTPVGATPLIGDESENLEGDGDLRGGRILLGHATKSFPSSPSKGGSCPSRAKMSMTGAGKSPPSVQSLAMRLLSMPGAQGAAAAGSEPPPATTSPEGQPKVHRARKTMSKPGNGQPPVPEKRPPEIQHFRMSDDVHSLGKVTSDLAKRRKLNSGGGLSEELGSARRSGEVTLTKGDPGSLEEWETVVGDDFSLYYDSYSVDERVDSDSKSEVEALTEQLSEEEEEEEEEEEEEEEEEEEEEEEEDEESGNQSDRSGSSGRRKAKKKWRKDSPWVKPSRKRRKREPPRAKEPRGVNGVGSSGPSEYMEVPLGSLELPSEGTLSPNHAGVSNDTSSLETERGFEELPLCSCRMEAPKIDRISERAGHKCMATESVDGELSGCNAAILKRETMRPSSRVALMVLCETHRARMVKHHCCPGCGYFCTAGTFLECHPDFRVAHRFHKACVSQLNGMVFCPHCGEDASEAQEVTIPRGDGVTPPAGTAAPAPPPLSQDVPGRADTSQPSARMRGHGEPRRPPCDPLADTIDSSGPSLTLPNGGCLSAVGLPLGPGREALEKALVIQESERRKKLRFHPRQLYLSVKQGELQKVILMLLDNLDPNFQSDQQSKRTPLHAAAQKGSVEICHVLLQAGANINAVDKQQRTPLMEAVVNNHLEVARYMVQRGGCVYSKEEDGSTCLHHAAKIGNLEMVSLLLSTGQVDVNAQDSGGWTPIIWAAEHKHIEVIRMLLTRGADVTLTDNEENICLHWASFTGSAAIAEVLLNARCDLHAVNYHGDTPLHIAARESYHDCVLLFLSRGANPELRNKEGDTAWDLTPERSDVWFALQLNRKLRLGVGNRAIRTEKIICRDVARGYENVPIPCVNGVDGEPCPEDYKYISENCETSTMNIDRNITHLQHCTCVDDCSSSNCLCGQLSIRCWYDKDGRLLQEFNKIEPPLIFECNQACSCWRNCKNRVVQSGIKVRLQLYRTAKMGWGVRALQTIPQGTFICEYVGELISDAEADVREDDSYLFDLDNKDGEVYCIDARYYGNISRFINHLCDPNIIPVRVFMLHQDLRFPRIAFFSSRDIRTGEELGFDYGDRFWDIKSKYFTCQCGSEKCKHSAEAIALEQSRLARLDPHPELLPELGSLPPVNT
T1 sequence (Q9H9B1 2-1298 limits assumed): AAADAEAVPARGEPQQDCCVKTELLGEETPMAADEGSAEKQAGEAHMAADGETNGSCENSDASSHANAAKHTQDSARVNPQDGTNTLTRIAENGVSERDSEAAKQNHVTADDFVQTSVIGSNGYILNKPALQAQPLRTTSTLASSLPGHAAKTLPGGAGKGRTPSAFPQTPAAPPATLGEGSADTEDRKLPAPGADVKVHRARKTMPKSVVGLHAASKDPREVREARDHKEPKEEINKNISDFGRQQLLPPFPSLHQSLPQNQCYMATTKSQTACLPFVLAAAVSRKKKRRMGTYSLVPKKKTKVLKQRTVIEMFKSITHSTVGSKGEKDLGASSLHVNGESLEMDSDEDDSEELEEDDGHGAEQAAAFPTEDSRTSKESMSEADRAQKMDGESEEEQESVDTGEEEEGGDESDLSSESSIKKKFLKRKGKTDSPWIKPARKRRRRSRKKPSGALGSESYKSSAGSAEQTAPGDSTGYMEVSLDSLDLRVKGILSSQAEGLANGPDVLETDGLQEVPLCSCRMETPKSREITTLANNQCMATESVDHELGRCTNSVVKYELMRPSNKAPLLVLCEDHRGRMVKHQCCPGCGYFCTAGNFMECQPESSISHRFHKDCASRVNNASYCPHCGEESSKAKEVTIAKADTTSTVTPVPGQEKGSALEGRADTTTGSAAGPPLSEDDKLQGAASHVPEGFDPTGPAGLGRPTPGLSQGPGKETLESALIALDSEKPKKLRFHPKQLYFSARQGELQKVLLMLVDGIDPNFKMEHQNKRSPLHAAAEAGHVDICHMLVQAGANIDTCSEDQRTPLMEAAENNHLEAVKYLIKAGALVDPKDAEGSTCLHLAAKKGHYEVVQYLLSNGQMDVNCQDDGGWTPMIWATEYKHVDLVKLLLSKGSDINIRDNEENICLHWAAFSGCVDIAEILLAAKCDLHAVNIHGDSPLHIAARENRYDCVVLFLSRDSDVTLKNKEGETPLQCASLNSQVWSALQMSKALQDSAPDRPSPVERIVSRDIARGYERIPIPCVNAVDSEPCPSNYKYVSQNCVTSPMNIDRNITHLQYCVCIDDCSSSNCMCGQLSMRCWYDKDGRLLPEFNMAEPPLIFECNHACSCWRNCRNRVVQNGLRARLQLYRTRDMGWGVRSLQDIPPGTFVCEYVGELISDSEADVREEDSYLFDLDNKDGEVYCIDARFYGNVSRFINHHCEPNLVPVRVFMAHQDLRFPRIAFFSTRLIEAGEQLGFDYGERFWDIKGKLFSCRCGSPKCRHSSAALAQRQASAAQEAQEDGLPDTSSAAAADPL


Assays:
[1] = tested on: 3×MBT domain of L3MBTL1; assay: Triple SILAC pull-down, 3xMBT/3xMBTD355N ratio (cytoplasmic, nuclear and chromatin fractions of 293T cells); assay type: binding, human; settings: for 3xMBT/D355N UNC Heavy: experiment with UNC0638 in heavy SILAC media; for 3xMBT/D355N UNC Light: experiment with UNC0638 in light SILAC media;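 on all read-outs here: proteins quantified with MaxQuant, requiring at least two unique peptides and quantification in both label directions, normalized to the mean of proteins from a digested loading control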
[2] = target: T1, G9a and GLP; assay: Triple SILAC pull-down after UNC0638 treatment of 293T cells, DMSO/UNC0638 ratio of protein captured by 3×MBT; assay type: cell-based; set-up: endogenous in cells; host or cells: HEK 293T; settings: for Relative to UNC0638 UNC Heavy: UNC0638 in heavy SILAC media; for Relative to UNC0638 UNC Light: UNC0638 in light SILAC media; for Relative to UNC0638 Average: average of UNC Light and UNC Heavy experiments;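 on all read-outs here: mass spectrometry (Q-Exactive) SILAC quantitation, DMSO/UNC0638 ratio computed after subtracting 3×MBTD355N mutant pull-down background, only proteins with at least twofold 3×MBT over mutant signal considered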
[3] = SILAC ratio 3xMBT vs 3xMBTD355N pull-down, 293T cells, all values in log base 2
[4] = SILAC ratio DMSO relative to UNC0638, pull-down with 3xMBT, all values in log base 2
[5] = SILAC ratio, pull-down 3xMBT vs 3xMBTD355N
[6] = SILAC ratio DMSO/UNC0638 of protein pulled down with 3xMBT

Molecule | 3xMBT/D355N UNC Heavy [1, 3] [log base 2] | 3xMBT/D355N UNC Light [1, 3] [log base 2] | Relative to UNC0638 UNC Heavy [2, 4] [log base 2] | Relative to UNC0638 UNC Light [2, 4] [log base 2] | Relative to UNC0638 Average ([2]; all values in log base 2) [log base 2] | 3xMBT/D355N UNC Heavy [1, 5] [log base 2] | 3xMBT/D355N UNC Light [1, 5] [log base 2] | Relative to UNC0638 UNC Heavy [2, 6] [log base 2] | Relative to UNC0638 UNC Light [2, 6] [log base 2] | Relative to UNC0638 Average [2] [log base 2] | Candidate G9a/GLP target ([2]; reduced association with 3xMBT after UNC0638 treatment)
STRBP (protein, UniProt Q96SI9 1-672, looked up) Spermatid perinuclear …: MRSIRSFANDDRHVMVKHSTIYPSPEELEAVQNMVSTVECALKHVSDWLDETNKGTKTEGETEVKKDEAGENYSKDQGGRTLCGVMRIGLVAKGLLIKDDMDLELVLMCKDKPTETLLNTVKDNLPIQIQKLTEEKYQVEQCVNEASIIIRNTKEPTLTLKVILTSPLIRDELEKKDGENVSMKDPPDLLDRQKCLNALASLRHAKWFQARANGLKSCVIVLRILRDLCNRVPTWAPLKGWPLELICEKSIGTCNRPLGAGEALRRVMECLASGILLPGGPGLHDPCERDPTDALSYMTIQQKEDITHSAQHALRLSAFGQIYKVLEMDPLPSSKPFQKYSWSVTDKEGAGSSALKRPFEDGLGDDKDPNKKMKRNLRKILDSKAIDLMNALMRLNQIRPGLQYKLLSQSGPVHAPVFTMSVDVDGTTYEASGPSKKTAKLHVAVKVLQAMGYPTGFDADIECMSSDEKSDNESKNETVSSNSSNNTGNSTTETSSTLEVRTQGPILTASGKNPVMELNEKRRGLKYELISETGGSHDKRFVMEVEVDGQKFRGAGPNKKVAKASAALAALEKLFSGPNAANNKKKKIIPQAKGVVNTAVSAAVQAVRGRGRGTLTRGAFVGATAAPGYIAPGYGTPYGYSTAAPAYGLPKRMVLLPVMKFPTYPVPHYSFF | 2.70 | 3.07 | 0.21 | −0.06 | 0.07 | – | – | – | – | – | –
RAD21 (protein, UniProt O60216 1-631, looked up) Double-strand-break repair …: MFYAHFVLSKRGPLAKIWLAAHWDKKLTKAHVFECNLESSVESIISPKVKMALRTSGHLLLGVVRIYHRKAKYLLADCNEAFIKIKMAFRPGVVDLPEENREAAYNAITLPEEFHDFDQPLPDLDDIDVAQQFSLNQSRVEEITMREEVGNISILQENDFGDFGMDDREIMREGSAFEDDDMLVSTTTSNLLLESEQSTSNLNEKINHLEYEDQYKDDNFGEGNDGGILDDKLISNNDGGIFDDPPALSEAGVMLPEQPAHDDMDEDDNVSMGGPDSPDSVDPVEPMPTMTDQTTLVPNEEEAFALEPIDITVKETKAKRKRKLIVDSVKELDSKTIRAQLSDYSDIVTTLDLAPPTKKLMMWKETGGVEKLFSLPAQPLWNNRLLKLFTRCLTPLVPEDLRKRRKGGEADNLDEFLKEFENPEVPREDQQQQHQQRDVIDEPIIEEPSRLQESVMEASRTNIDESAMPPPPPQGVKRKAGQIDPEPVMPPQQVEQMEIPPVELPPEEPPNICQLIPELELLPEKEKEKEKEKEDDEEEEDEDASGGDQDQEERRWNKRTQQMLHGLQRALAKTGAESISLLELCRNTNRKQAAAKFYSFLVLKKQQAIELTQEEPYSDIIATPGPRFHII | 2.15 | 1.49 | 0.07 | 0.08 | 0.07 | – | – | – | – | – | –
PPIL4 (protein, UniProt Q8WUA2 1-492, looked up) Peptidyl-prolyl cis-trans …: MAVLLETTLGDVVIDLYTEERPRACLNFLKLCKIKYYNYCLIHNVQRDFIIQTGDPTGTGRGGESIFGQLYGDQASFFEAEKVPRIKHKKKGTVSMVNNGSDQHGSQFLITTGENLDYLDGVHTVFGEVTEGMDIIKKINETFVDKDFVPYQDIRINHTVILDDPFDDPPDLLIPDRSPEPTREQLDSGRIGADEEIDDFKGRSAEEVEEIKAEKEAKTQAILLEMVGDLPDADIKPPENVLFVCKLNPVTTDEDLEIIFSRFGPIRSCEVIRDWKTGESLCYAFIEFEKEEDCEKAFFKMDNVLIDDRRIHVDFSQSVAKVKWKGKGGKYTKSDFKEYEKEQDKPPNLVLKDKVKPKQDTKYDLILDEQAEDSKSSHSHTSKKHKKKTHHCSEEKEDEDYMPIKNTNQDIYREMGFGHYEEEESCWEKQKSEKRDRTQNRSRSRSRERDGHYSNSHKSKYQTDLYERERSKKRDRSRSPKKSKDKEKSKYR | – | – | – | – | – | 1.63 | 2.38 | 0.46 | 0.50 | 0.48 | ✓
PUF60 (protein, UniProt Q9UHX1 1-559, looked up) Poly(U)-binding-splicing …: MATATIALQVNGQQGGGSEPAAAAAVVAAGDKWKPPQGTDSIKMENGQSTAAKLGLPPLTPEQQEALQKAKKYAMEQSIKSVLVKQTIAHQQQQLTNLQMAAVTMGFGDPLSPLQSMAAQRQRALAIMCRVYVGSIYYELGEDTIRQAFAPFGPIKSIDMSWDSVTMKHKGFAFVEYEVPEAAQLALEQMNSVMLGGRNIKVGRPSNIGQAQPIIDQLAEEARAFNRIYVASVHQDLSDDDIKSVFEAFGKIKSCTLARDPTTGKHKGYGFIEYEKAQSSQDAVSSMNLFDLGGQYLRVGKAVTPPMPLLTPATPGGLPPAAAVAAAAATAKITAQEAVAGAAVLGTLGTPGLVSPALTLAQPLGTLPQAVMAAQAPGVITGVTPARPPIPVTIPSVGVVNPILASPPTLGLLEPKKEKEEEELFPESERPEMLSEQEHMSISGSSARHMVMQKLLRKQESTVMVLRNMVDPKDIDDDLEGEVTEECGKFGAVNRVIIYQEKQGEEEDAEIIVKIFVEFSIASETHKAIQALNGRWFAGRKVVAEVYDQERFDNSDLSA | 1.71 | 2.61 | 0.03 | 0.07 | 0.05 | – | – | – | – | – | –
